# Measured values: the supplement of paper PMC9170038
# Test system: MS2 coat protein
# Test: apparent KD of MS2 coat protein; designed switch direction (-1 OFF switch, 1 ON switch): 1; higher = weaker reporter binding
# Method in brief: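 Transcription of designed RNA switches on Illumina chips was done by stalled E. coli RNA polymerase. SNAP-549-labelled MS2 coat protein was then titrated in doubling steps from 0.7 or 1.5 nM to 3 µM, with steps of 0.8–1.5 h at the lowest and 10–20 min at the highest concentration. The per-design median over clusters of curve-fitted normalised fluorescence is reported as apparent KD.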
# [1] = input ligand: microRNA oligo, concentration not stated
# [2] = Eterna round: R95, input ligand: FMN 200 uM
# [3] = Eterna round: R95, input ligand: microRNA oligo, concentration not stated
# [4] = Eterna round: R95, input ligand: none
Sequence,apparent KD of MS2 coat protein (input ligand: FMN 200 uM),apparent KD of MS2 coat protein [1],apparent KD of MS2 coat protein (input ligand: none),apparent KD of MS2 coat protein [2],apparent KD of MS2 coat protein [3],apparent KD of MS2 coat protein [4]
"UGGUAACAUGAGGAUCACCCAUGUCAAAUGAAUCGAGGAUAUGGGAAUUAACAACACAAACUAGAAGGCGAAUUUG [Altered State 1-8 - Jieux - Same State 1] (Eterna round: R96, puzzle: Same State 1)",316 nM,151 nM,314 nM,–,–,–
UGGUAACAUGAGGAUCACCCAUGUCAAAUGAAUCGAGGAUAUGGGAAUUAACAACACAAACUAGAAGGCGAAUUUG [Altered State 1-8 - Jieux - Same State 1] (puzzle: Same State 1),–,–,–,293 nM,488 nM,180 nM
UGGUAACAUGAGGAUCACCCAUGUCAAAUGAAUCGAGGAUAUGGGAAUUAACAAUAUAAACUAGAAGGCGAAUUUG [Altered State 1-7 - Jieux - Same State 1] (puzzle: Same State 1),–,–,–,144 nM,284 nM,290 nM
"UGGUACAUGGGAGGAUAUCAUGUAGAAACAUGAGGAUCACCCAUGUAGAUGGCCGGUAACCGGGAUGAGAAGGCCCAUGUACCU [JL SSNG1 3.64] (Eterna round: R96, puzzle: Same State NG 2)",27 nM,22.4 nM,30.3 nM,–,–,–
"UGGUACAUGGGAGGAUAUCCUCAGGAGACAUGAGGAUCACCCAUGUAAUUUAAGCCGAAAGGCAUGGAGAAGGCCCAUGUACCU [JL SSNG1 3.80] (Eterna round: R96, puzzle: Same State NG 2)",19.5 nM,94.1 nM,129 nM,–,–,–
"UGGUACAUGGGAGGAUAUCUCAUGGAGACAUGAGGAUCACCCAUGUAGAUGGGCGGUAACGCCGGAGAGAAGGCCCAUGUACCU [JL SSNG1 3.70] (Eterna round: R96, puzzle: Same State NG 2)",29.2 nM,41.6 nM,58.1 nM,–,–,–
"UGGUACAUGGGAGGAUAUGGGCAAGGGACAUGAGGAUCACCCAUGUAUUAAAAGCCGAAAGGCAUCUAGAAGGCCCAUGUACCU [JL SSNG1 3.87] (Eterna round: R96, puzzle: Same State NG 2)",14 nM,42.7 nM,50.2 nM,–,–,–
"UGGUGUAACAUGAGGAUCACCCAUGUCACAACCCGGAUAGAGUAGGAUAUGGGCUGAUCACGCAUCCAGAAGGGCUCAUACUUU [Eternabot solution 19] (Eterna round: R96, puzzle: Same State NG 3)",19.7 nM,14.3 nM,16.8 nM,–,–,–
UGUAAACAUGAGGAUCACCCAUGUAAUAAUAUGGGAGGAUAUGGGAAUUAAUUAAUUAAACCAGAAGGCCUAAUGU [Mat - Same State 1 - D88] (puzzle: Same State 1),–,–,–,30.9 nM,388 nM,280 nM
UGUAAACAUGAGGAUCACCCAUGUUUUUUCAUGGGAGGAUAUCUGAGUUAAGUAUAUUAAGGAGAAGGCCUUGUGU [× ×•×ª×• ×ž×“×™× ×” × ×—×ª-03] (puzzle: Same State 1),–,–,–,90.2 nM,18.7 nM,24.7 nM
"UGUACCUUCACAGGAUAUCAUGCGAAAAUUGCGUGAGAAGGGUGAAUACGGUGUUCAUUGUUGCACAUGAGGAUCACCCAUGUA [SameState NG1 #55] (Eterna round: R96, puzzle: Same State NG 1)",269 nM,74.9 nM,259 nM,–,–,–
"UGUAUACAUGAGGAUCACCCAUGUCAACGUAGUCGAGGAUAUGGGCAGCCGUGAGGCGUACCAGAAGGCGAAGAGG [JL-ss1-3.05 ViennaUCT mod] (Eterna round: R96, puzzle: Same State 1)",36.5 nM,104 nM,151 nM,–,–,–
UGUAUACAUGAGGAUCACCCAUGUCAACGUAGUCGAGGAUAUGGGCAGCCGUGAGGCGUACCAGAAGGCGAAGAGG [JL-ss1-3.05 ViennaUCT mod] (puzzle: Same State 1),–,–,–,27.6 nM,95.3 nM,172 nM
UGUUAACAUGAGGAUCACCCAUGUCAAAUGAAUCGAGGAUAUGGGAAGUAAUAAGAGAAACUAGAAGGCGAAGUUG [Altered State 1-2 - Jieux - Same State 1] (puzzle: Same State 1),–,–,–,276 nM,353 nM,192 nM
"UGUUAGUAGUGAGGAUAUACAUACACCUUACAUGAGGAUCACCCAUGUUUUAAUAUUGAUAGUUAGUAGAAGGCACAUGAUUAU [JR_SSNG2_Sub043] (Eterna round: R96, puzzle: Same State NG 2)",22.1 nM,35.8 nM,45.7 nM,–,–,–
